Test results published in US20230203097A1.
Where no end group is shown, it is not given here.

B1: fluorescence-labeled novel alanine-substituted peptide MQP-37A6 (peptide)
peptide: SLVLAAARW
modifications: also: fluorescence-labeled, label and position not given here
B2: fluorescence-labeled peptide MQP-37 (peptide)
peptide: SLVLADARW
modifications: also: fluorescence-labeled, label and position not given here

How the values were obtained:
recombinant MAVS protein [1] = experiment: fluorescence-labeled peptide titrated on plate-coated recombinant MAVS (250 ng per well), fluorescence read-out
Chain of recombinant MAVS protein (Q7Z434 2-540): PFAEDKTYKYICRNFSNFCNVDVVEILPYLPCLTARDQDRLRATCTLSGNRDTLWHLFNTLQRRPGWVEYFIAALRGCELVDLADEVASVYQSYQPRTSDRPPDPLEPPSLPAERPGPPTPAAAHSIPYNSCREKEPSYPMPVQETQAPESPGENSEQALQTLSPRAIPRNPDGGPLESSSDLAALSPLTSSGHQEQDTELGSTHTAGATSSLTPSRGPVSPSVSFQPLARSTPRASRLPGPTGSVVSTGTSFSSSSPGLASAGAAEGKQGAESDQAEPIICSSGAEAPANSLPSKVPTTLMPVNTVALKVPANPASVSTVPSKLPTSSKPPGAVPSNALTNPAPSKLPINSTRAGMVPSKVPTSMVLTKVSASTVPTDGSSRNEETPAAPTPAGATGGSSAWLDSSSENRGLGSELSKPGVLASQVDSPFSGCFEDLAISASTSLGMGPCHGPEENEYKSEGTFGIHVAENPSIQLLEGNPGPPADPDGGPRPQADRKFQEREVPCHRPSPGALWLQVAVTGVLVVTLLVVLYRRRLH

recombinant MAVS protein [2] = experiment: fluorescence-labeled peptide titrated on plate-coated recombinant MAVS; ratio of the Kd of MQP-37 to that of MQP-37A6

| Binder | Kd (recombinant MAVS protein [1]) [mM] | fold binding affinity against MQP-37 (recombinant MAVS protein [2]) [times] |
| --- | --- | --- |
| B1 | 0.75 | 20 |
| B2 | 16 |  |
